# In publication PMC7293037, “Fuse to defuse: a self-limiting ribonuclease-ring nuclease fusion for type III CRISPR defence” (Nucleic Acids Research, 2020):
# What was measured:
# [1] = system: Csx1-Crn2 H495A (Marinitoga piezophila); experiment: EMSA; details: apparent; both CARF and Crn2 sites intact, no cA4 cleavage in Crn2 site; cyclic tetra-adenylate, head-to-tail closed ring (no free 5' or 3' end); EMSA: 10 nM labelled cA4, 20 mM Tris-HCl pH 7.5, 150 mM NaCl, 2 mM MgCl2, 2 uM BSA, 10 min at 25 C; native 15% PAGE in 1x TBE at 28 C
# [2] = system: Csx1-Crn2 S452Y (Marinitoga piezophila); experiment: EMSA; details: cyclic tetra-adenylate, head-to-tail closed ring (no free 5' or 3' end); EMSA: 10 nM labelled cA4, 20 mM Tris-HCl pH 7.5, 150 mM NaCl, 2 mM MgCl2, 2 uM BSA, 10 min at 25 C; native 15% PAGE in 1x TBE at 28 C
sequence,measurement,setting,value
AAAA [cA4 (cyclic tetra-adenylate)],Kd,[1],20 nM
same,Kd,[2],1000 nM
